Results as given in article PMC10889306, “ApoE Isoforms Inhibit Amyloid Aggregation of Proinflammatory Protein S100A9” (International Journal of Molecular Sciences, 2024).
Where “and” joins values, the source holds several entries; their conditions need not be identical. Equal values may be shown once.

Tests used:
ApoE3 (lipid-free) [1] = molecular target: T1, ApoE3 (lipid-free) (human, UniProt P02649 19-317); assay: cross-linking; native proteins, 4 uM S100A9 and 4 uM ApoE isoform (1:1), preincubated at 4 C overnight; glutaraldehyde at 10- and 100-fold molar excess, 30 min at 4 C, quenched with Tris; SDS-PAGE and Western blot with anti-S100A9 polyclonal antibodies; conditions: both partners purified
T1 construct: Apolipoprotein E, isoform ApoE3 (Cys112/Arg158), human; printed as a 299-residue lipoprotein; the methods call the ApoE isoforms full-length; PDB 2L7B (NMR structure of full-length ApoE3) was used for the modelling only; also called Apolipoprotein E3; lipid-free ApoE3; source: bought: AlexoTech AB (recombinant), then size-exclusion chromatography (Superdex 200)
T1 sequence (P02649 19-317): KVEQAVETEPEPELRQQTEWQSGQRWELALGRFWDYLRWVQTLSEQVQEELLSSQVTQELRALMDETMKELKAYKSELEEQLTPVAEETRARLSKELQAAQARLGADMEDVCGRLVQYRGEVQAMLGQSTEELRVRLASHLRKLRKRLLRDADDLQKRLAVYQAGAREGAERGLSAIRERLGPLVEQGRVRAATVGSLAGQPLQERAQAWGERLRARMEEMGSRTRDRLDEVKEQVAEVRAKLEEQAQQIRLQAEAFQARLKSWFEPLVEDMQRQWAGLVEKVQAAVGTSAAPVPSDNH

ApoE4 (lipid-free) = molecular target: T2, ApoE4 (lipid-free) (human, UniProt P02649 19-317, Cys112 to Arg112); assay: as above; conditions: both partners purified
T2 construct: Apolipoprotein E, isoform ApoE4 (Arg112/Arg158), human; printed as a 299-residue lipoprotein; the methods call the ApoE isoforms full-length; Natural allele APOE e4; differs from ApoE3 only at position 112; also called Apolipoprotein E4; lipid-free ApoE4; source: bought: AlexoTech AB (recombinant), then size-exclusion chromatography (Superdex 200)
T2 sequence (P02649 other isoform, or with tags, fused parts or gaps Cys112 to Arg112 | Cys112 to Arg112): as the sequence (P02649 19-317) above, with C112R counted along it

ApoE3 (lipid-free) [2] = molecular target: T1, ApoE3 (lipid-free); assay: SDS-stable complex by SDS-PAGE and Western blot; 50 uM S100A9 with 2 uM lipid-free or lipidated ApoE isoform, PBS, 42 C, 70 h, non-stirring; reducing Laemmli buffer, 4-20% gel; Coomassie and Western blot with anti-S100A9 polyclonal antibody (Invitrogen); conditions: both partners purified
[3] = molecular target: T3, ApoE3-DOPC (lipidated ApoE3) (human, UniProt P02649 19-317); assay: as above; conditions: both partners purified
T3 construct: Apolipoprotein E, isoform ApoE3 (Cys112/Arg158), human; printed as a 299-residue lipoprotein; 'Lipidated full-length ApoE isoforms'; also called DOPC-ApoE3; source: bought: AlexoTech AB (recombinant)
T3 sequence (P02649 19-317): as the sequence (P02649 19-317) above

[4] = molecular target: T4, ApoE4-DOPC (lipidated ApoE4) (human, UniProt P02649 19-317, Cys112 to Arg112); assay: as above; conditions: both partners purified
T4 construct: Apolipoprotein E, isoform ApoE4 (Arg112/Arg158), human; printed as a 299-residue lipoprotein; 'Lipidated full-length ApoE isoforms'; source: bought: AlexoTech AB (recombinant)
T4 sequence (P02649 other isoform, or with tags, fused parts or gaps Cys112 to Arg112 | Cys112 to Arg112): as the sequence (P02649 19-317) above, with C112R counted along it

[5] = molecular target: the molecule itself; assay: as above
[6] = molecular target: the molecule itself; assay: SDS-stable complex by Western blot of pellet and SEC fractions; 100 uM S100A9 with 5 uM lipid-free ApoE4, PBS, 42 C, 70 h (methods: 72 h); centrifuged 14,000 rpm 15 min; pellet and Superdex 200 peaks of the supernatant on SDS-PAGE and Western blot with anti-S100A9 polyclonal antibodies (Santa Cruz)

stoichiometry N (ApoE3 (lipid-free) [1]): 2 S100A9 per ApoE | stoichiometry N (ApoE4 (lipid-free)): 1 S100A9 per ApoE and 2 S100A9 per ApoE | stoichiometry N (ApoE3 (lipid-free) [2]): 1 S100A9 per ApoE | stoichiometry N [3]: 1 S100A9 per ApoE | stoichiometry N [4]: 1 S100A9 per ApoE
B1: S100A9 (natural protein)
chain: KMSQLERNIETIINTFHQYSVKLGHPDTLNQGEFKELVRKDLQNFLKKENKNEKVIEHIMEDLDTNADKQLSFEEFIMLMARLTWASHEKMHEGDEGPGHHHKPGLGEGTP
notes: 13 kDa monomer on the gels; PDB 5I8N (S100A9 dimer, NMR) was used for the modelling only; also called native S100A9; S100A9 amyloids; source: Escherichia coli, purified as described previously [57]; Superdex 200 gel filtration for the cross-linking
stoichiometry N [5]: 3 | stoichiometry N [6]: 2
